Laboratory results from patent publication US20230174652A1 (Regeneron, published 2023).

B1: REGN5837 (bispecific antibody, V domains shown)
VH 1: QVQLQESGPGLVKPSETLSLTCTVSGGSISSYYWSWIRQPPGKGLEWIGYIYYSGITHYNPSLKSRVTISVDTSKIQFSLKLSSVTAADTAVYYCARWGVRRDYYYYGMDVWGQGTTVTVSS
VH 2: EVQLVQSGAEVKKPGESLKISCKGSGYNFATYWIAWVRQMPGKGLELMGIIYPGDSETTYNPSFQGQVTISADKSISNAYLQWSSLKASDTAMYYCARVGGYCSGTSCHNWFDPWGLGTLVTVSS
VL: not shown
notes: also called anti-CD22 x anti-CD28 bispecific antibody; CD22xCD28 mAb
B2: REGN5838 (bispecific antibody, V domains shown)
VH 1: B1 VH 1
VH 2: EVQLVESGGGLVQPGGSLKLSCAASGFTFSGSDMHWVRQASGKGLEWVGRIRNQPNSYATAYAASVKGRFTISRDDSKNTAHLQMNSLKTEDTAVYFCTRQKQVVYNYHHYYGMDVWGQGTTVTVSS
VL: not shown
notes: as for B1
B3: REGN5705 (antibody, V domains shown)
VH: B1 VH 1
VL: not shown
notes: also called CD28 mAb; parental CD28 antibody
B4: H4sH33037P2 (antibody, V domains shown)
VH: B1 VH 2
VL: not shown
notes: Anti-CD22 bivalent parental monoclonal antibody; also called mAb33037P2; CD22 mAb
B5: H4sH33041P2 (antibody, V domains shown)
VH: B2 VH 2
VL: not shown
notes: Anti-CD22 bivalent parental monoclonal antibody; also called mAb33041P2; CD22 mAb
B6: REGN5838 (bispecific antibody, V domains shown)
VH 1: B1 VH 1
VH 2: B2 VH 2
VL: not shown
notes: also called anti-CD22 x anti-CD28 bispecific antibody; CD22xCD28

Tests used:
human CD22 on cells [1] = molecular target: T1, human CD22 on cells (human, UniProt P20273 20-847); assay: flow cytometry on Nalm6 cells (human CD22)
T1 construct: whole, on cells; also called hCD22; CD22 on Nalm6 cells
Description: (§1) Flow cytometric analysis was utilized to determine binding of CD22×CD28 bispecific antibodies to human CD22 expressing Nalm6 cells and human CD28 expressing Jurkat cells and to cynomolgus monkey T (CD28+) and B (CD22+) cells. […] After incubation, the cells were washed twice with cold PBS containing 1% filtered FBS and a PE-conjugated anti-human secondary antibody was added to the cells and incubated for an additional 30 minutes. An additional phenotyping antibody cocktail (anti-CD2, anti-CD20, anti-CD16, anti-CD14) was added to wells with cynomolgus monkey PBCMs. Wells containing no antibody or secondary only were used as a control.
(§2) After incubation with secondary antibody, cells were washed, re-suspended in 200 μL cold PBS containing 1% filtered FBS and analyzed by flow cytometry on a BD LSR_Fortessa. Cynomolgus monkey T cells were identified as CD2+/CD16− and B cells as CD20+. EC₅₀ values for FACS binding were calculated using 4-parameter non-linear regression analysis in Prism software.

hCD22.mmH = molecular target: T2, hCD22.mmH (human, UniProt P20273 20-687); assay: SPR (Biacore), mAb captured by anti-human Fc, hCD22.mmH injected, 25°C
T2 construct: also called REGN5140; recombinant human CD22
Description: (§3) All of the binding kinetics experiments were performed at 25° C. Kinetic association (kₐ) and dissociation (kd) rate constants were determined by fitting the real-time sensorgrams to a 1:1 binding model using Scrubber 2.0c curve fitting software.

hCD28.mmH = molecular target: T3, hCD28.mmH (human); assay: SPR (Biacore T-200), mAb captured by anti-human Fc, hCD28.mmH injected, 25°C
T3 construct: also called human CD28 with a C-terminal myc.myc hexahistidine tag
Description: as §3

[2] = molecular target: T4, human CD20 on HEK293/hCD20 cells (human, UniProt P11836 1-297); assay: flow cytometry on HEK293/hCD20 cells (negative for CD22 and CD28), geometric mean MFI of APC
T4 construct: whole, on cells; Used as a cell line negative for CD28 and CD22; also called negative cell line for CD28 and CD22
T4 sequence (looked up): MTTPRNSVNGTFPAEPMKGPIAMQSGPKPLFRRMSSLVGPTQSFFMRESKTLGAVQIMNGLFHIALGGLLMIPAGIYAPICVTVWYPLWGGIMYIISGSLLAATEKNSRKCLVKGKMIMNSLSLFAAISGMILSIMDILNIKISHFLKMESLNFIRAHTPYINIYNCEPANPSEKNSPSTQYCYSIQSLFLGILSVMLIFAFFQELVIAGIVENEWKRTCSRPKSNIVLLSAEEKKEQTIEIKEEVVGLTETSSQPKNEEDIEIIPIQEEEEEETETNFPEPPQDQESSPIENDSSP
Description: (§4) Briefly, human CD4+ T-cells, HEK293/hCD20, HEK293/hCD20/hCD22 and Raji/CD80 and CD86 negative cells were resuspended in staining buffer containing D-PBS+2% FBS. […] A negative control sample was included containing no antibody. Cells were washed once with cold staining buffer and incubated for 30-45 minutes with Allophycocyanin (APC) labeled anti-human secondary antibody. After incubation, cells were washed once with cold D-PBS buffer without FBS and incubated with LIVE/DEAD Fixable Green Dead Cell Stain (Invitrogen) according to manufacturer's instructions to discriminate between live and dead cells. Cells were then fixed in BD Cytofix Buffer according to manufacturer's instructions, washed, re-suspended in staining buffer, and analyzed by flow cytometry on an iQue Screener flow cytometer. For EC₅₀ determinations, geometric mean fluorescence intensity (MFI) values were analyzed using a four parameter logistic equation over a 9-point response curve using GraphPad Prism. Fold binding was calculated using the following equation:

human CD28 on cells = molecular target: T5, human CD28 on cells (human, UniProt P10747 19-220); assay: flow cytometry on Jurkat cells (human CD28)
T5 construct: whole, on cells; also called CD28 on Jurkat cells; CD28 on human CD4+ T-cells
Description: as §1, §2

human CD22 on cells [3] = molecular target: T1, human CD22 on cells; assay: flow cytometry on HEK293/hCD20/hCD22 cells, geometric mean MFI of APC
Description: as §4

[4] = molecular target: T6, Monkey CD22.mmH (EHH59463.1) (monkey (cyno)); assay: SPR (Biacore), mAb captured by anti-human Fc, monkey CD22.mmH (EHH59463.1) injected, 25°C
T6 construct: also called REGN5281; mfCD22.mmH
T6 chain: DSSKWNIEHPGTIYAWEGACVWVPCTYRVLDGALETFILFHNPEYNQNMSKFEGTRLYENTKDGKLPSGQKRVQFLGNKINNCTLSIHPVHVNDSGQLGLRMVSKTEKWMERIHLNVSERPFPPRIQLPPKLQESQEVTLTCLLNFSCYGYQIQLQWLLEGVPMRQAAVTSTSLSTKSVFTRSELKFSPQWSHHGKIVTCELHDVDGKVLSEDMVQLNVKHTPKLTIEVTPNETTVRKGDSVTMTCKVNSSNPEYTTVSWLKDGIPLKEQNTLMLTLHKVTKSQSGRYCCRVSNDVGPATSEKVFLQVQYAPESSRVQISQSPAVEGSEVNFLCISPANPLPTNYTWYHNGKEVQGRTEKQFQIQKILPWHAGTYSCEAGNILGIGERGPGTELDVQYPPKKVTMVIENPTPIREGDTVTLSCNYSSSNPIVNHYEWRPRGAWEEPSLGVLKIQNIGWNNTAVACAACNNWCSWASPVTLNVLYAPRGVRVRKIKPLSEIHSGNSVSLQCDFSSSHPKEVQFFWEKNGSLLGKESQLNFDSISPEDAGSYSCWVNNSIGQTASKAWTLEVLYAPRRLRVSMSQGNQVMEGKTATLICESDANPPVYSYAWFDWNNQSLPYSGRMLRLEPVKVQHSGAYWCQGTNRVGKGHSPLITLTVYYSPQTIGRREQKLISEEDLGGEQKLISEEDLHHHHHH
Description: as §3

[5] = molecular target: T7, Monkey CD22.mmH (XP_005588899.1) (monkey (cyno)); assay: SPR (Biacore), mAb captured by anti-human Fc, monkey CD22.mmH (XP_005588899.1) injected, 25°C
T7 construct: also called REGN5280; mfCD22.mmH
T7 chain: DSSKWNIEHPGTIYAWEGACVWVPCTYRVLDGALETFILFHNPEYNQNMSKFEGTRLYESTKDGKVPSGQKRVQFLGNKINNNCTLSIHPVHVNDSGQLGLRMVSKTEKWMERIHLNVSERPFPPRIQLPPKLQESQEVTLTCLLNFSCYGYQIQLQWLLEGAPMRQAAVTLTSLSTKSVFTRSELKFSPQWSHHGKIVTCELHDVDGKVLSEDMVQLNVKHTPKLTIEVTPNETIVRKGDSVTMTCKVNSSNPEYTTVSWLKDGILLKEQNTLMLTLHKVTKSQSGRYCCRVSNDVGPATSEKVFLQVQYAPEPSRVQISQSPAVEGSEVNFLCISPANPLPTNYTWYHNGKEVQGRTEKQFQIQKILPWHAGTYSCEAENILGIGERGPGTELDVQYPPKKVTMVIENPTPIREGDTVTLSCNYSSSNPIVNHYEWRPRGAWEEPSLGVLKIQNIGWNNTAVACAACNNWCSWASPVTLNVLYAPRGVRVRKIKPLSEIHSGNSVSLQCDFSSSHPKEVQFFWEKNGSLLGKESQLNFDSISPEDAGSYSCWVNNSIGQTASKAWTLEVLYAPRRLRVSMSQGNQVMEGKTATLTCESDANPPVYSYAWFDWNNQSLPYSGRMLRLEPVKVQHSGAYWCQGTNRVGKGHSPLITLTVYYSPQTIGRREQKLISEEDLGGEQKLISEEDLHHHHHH
Description: as §3

human CD22 [6] = molecular target: T8, human CD22 (human, UniProt P20273 20-847); assay: flow cytometry on HEK293/hCD20/hCD22 cells
T8 construct: whole, on cells; also called hCD22
Description: as §4

human CD22 [7] = molecular target: T8, human CD22; assay: flow cytometry on Raji/CD80 and CD86 negative cells
Description: as §4

Row | Binder | EC50 (human CD22 on cells [1]) [nM] | 90 nM hCD22.mmH Bind (RU) (hCD22.mmH) | Kd (hCD22.mmH) [nM] | t½ (hCD22.mmH) [min] | 600 nM hCD28.mmH Bind (RU) (hCD28.mmH) | Kd (hCD28.mmH) [nM] | binding result [2] | EC50 (human CD28 on cells) [nM] | t1/2 (hCD28.mmH) [min] | binding result (human CD22 on cells [3]) | Kd [4] [nM] | t1/2 [4] [min] | t1/2 [5] [min] | EC50 (human CD22 [6]) [nM] | EC50 (human CD22 [7]) [nM]
1 | B1 | 13 | 100 | 8.75 | 7.8 | 72.9 | 341 | no binding (tested: 10^-7 M) | – | – | – | – | – | – | – | –
2 | B2 | 18 | 26.7 | 14.3 | 38.2 | 77 | 404 | no binding (tested: 10^-7 M) | 23 | 2.3 | – | – | – | – | – | –
3 | B3 | – | – | – | – | 88.4 | – | no binding (tested: 10^-7 M) | – | 2.4 | no binding (tested: 10^-7 M) | – | – | – | – | –
4 | B4 | – | 193 | – | 7.8 | – | – | – | – | – | – | 35.6 | 4 | 4.3 | – | –
5 | B5 | – | 61.5 | – | 59.8 | – | – | – | – | – | – | 59.2 | 29.6 | 39.8 | – | –
6 | B6 | – | – | – | – | – | – | – | – | – | – | – | – | – | 11.4 | 14.9
